Source: patent publication US20160046684A1, “Methods and compositions for treatment of PTP1B-related diseases” (BROWN UNIVERSITY, priority 2014, published 2016)
Changes are numbered by the printed parent chain. Names may count otherwise. “Also recorded” adds a separate entry of the source.

B1: PTP1B1-284/Δ7: truncated PTP1B, residues 1-284, lacking the α7 helix (SEQ ID NO: 3) (protein)
chain: MEMEKEFEQIDKSGSWAAIYQDIRHEASDFPCRVAKLPKNKNRNRYRDVSPFDHSRIKLHQEDNDYINASLIKMEEAQRSYILTQGPLPNTCGHFWEMVWEQKSRGVVMLNRVMEKGSLKCAQYWPQKEEKEMIFEDTNLKLTLISEDIKSYYTVRQLELENLTTQETREILHFHYTTWPDFGVPESPASFLNFLFKVRESGSLSPEHGPVVVHCSAGIGRSGTFCLADTCLLLMDKRKDPSSVDIKKVLLEMRKFRMGLIQTADQLRFSYLAVIEGAKFIMGD
modifications: The sequence was designed and synthesized
B2: Wild-type PTP1B1-301: PTP1B catalytic domain, amino acid residues 1-301 (SEQ ID NO: 2) (protein)
chain: MEMEKEFEQIDKSGSWAAIYQDIRHEASDFPCRVAKLPKNKNRNRYRDVSPFDHSRIKLHQEDNDYINASLIKMEEAQRSYILTQGPLPNTCGHFWEMVWEQKSRGVVMLNRVMEKGSLKCAQYWPQKEEKEMIFEDTNLKLTLISEDIKSYYTVRQLELENLTTQETREILHFHYTTWPDFGVPESPASFLNFLFKVRESGSLSPEHGPVVVHCSAGIGRSGTFCLADTCLLLMDKRKDPSSVDIKKVLLEMRKFRMGLIQTADQLRFSYLAVIEGAKFIMGDSSVQDQWKELSHEDLEP
modifications: The sequence was designed and synthesized
B3: PTP1BY153A: PTP1B1-301 mutant with mutation in the L11 loop (protein, UniProt P18031 1-301, looked up, variant Y153A)
chain: B2 chain with Y153A
B4: PTP1BYAYA: mutant of PTP1B1-301 having point mutations at Y152 and Y153 (Y152A/Y153A) within the L11 loop (protein)
chain: B2 chain with Y152A, Y153A
modifications: The sequence was designed and synthesized
notes: mutant of PTP1B1-301 having point mutations at Y152 and Y153 (Y152A/Y153A) within the L11 loop
B5: PTP1BY152A: PTP1B1-301 mutant with mutation in the L11 loop (protein, UniProt P18031 1-301, looked up, variant Y152A)
chain: B2 chain with Y152A
B6: PTP1BF196A: PTP1B1-301 mutant with mutation in the α3 helix (protein, UniProt P18031 1-301, looked up, variant F196A)
chain: B2 chain with F196A
B7: PTP1BG283P: PTP1B1-301 mutant with point mutation in the α7 helix (protein, UniProt P18031 1-301, looked up, variant G283P)
chain: B2 chain with G283P
B8: PTP1BS295A: PTP1B1-301 mutant with point mutation in the α7 helix (protein, UniProt P18031 1-301, looked up, variant S295A)
chain: B2 chain with S295A
B9: PTP1BS295A/E297A: PTP1B1-301 double mutant in the α7 helix (protein, UniProt P18031 1-301, looked up, variant S295A E297A)
chain: B2 chain with S295A, E297A
B10: PTP1BY153F: PTP1B1-301 mutant with mutation in the L11 loop (protein, UniProt P18031 1-301, looked up, variant Y153F)
chain: B2 chain with Y153F
B11: PTP1BL195A: PTP1B1-301 mutant with mutation in the α3 helix (protein, UniProt P18031 1-301, looked up, variant L195A)
chain: B2 chain with L195A
B12: PTP1BD298A: PTP1B1-301 mutant with point mutation in the α7 helix (protein, UniProt P18031 1-301, looked up, variant D298A)
chain: B2 chain with D298A
B13: PTP1BE297A: PTP1B1-301 mutant with point mutation in the α7 helix (protein, UniProt P18031 1-301, looked up, variant E297A)
chain: B2 chain with E297A
B14: PTP1BS190A: PTP1B1-301 mutant with mutation in the α3 helix (protein, UniProt P18031 1-301, looked up, variant S190A)
chain: B2 chain with S190A
B15: PTP1BL294A: PTP1B1-301 mutant with point mutation in the α7 helix (protein, UniProt P18031 1-301, looked up, variant L294A)
chain: B2 chain with L294A
B16: PTP1BF194A: PTP1B1-301 mutant with mutation in the α3 helix (protein, UniProt P18031 1-301, looked up, fragment F194A)
chain: B2 chain with F194A
B17: PTP1BW291A: PTP1B1-301 mutant with point mutation in the α7 helix (protein, UniProt P18031 1-301, looked up, variant W291A)
chain: B2 chain with W291A
B18: PTP1BK292A: PTP1B1-301 mutant with point mutation in the α7 helix (protein, UniProt P18031 1-301, looked up, variant K292A)
chain: B2 chain with K292A
B19: PTP1BY152F: PTP1B1-301 mutant with mutation in the L11 loop (protein, UniProt P18031 1-301, looked up, variant Y152F)
chain: B2 chain with Y152F

System: not listed separately
Test: Circular dichroism thermal denaturation (melting temperature)
Assay type: physicochemical
Details: CD spectropolarimetry, thermal denaturation at 208 nm, 2.5 μM protein
Procedure: Circular dichroism (CD) spectropolarimetry was used to measure the melting temperatures of PTP1BYAYA, PTP1B1-301, and PTP1B1-284. CD measurements were performed on a Jasco J-815 CD spectropolarimeter. PTP1B samples were dialyzed at 4° C. into 10 mM sodium phosphate, pH 6.8, 150 mM NaCl. Samples were then diluted to a protein concentration of 2.5 μM and placed in a 0.2-cm glass cuvette. Wavelength scans were performed in the far-UV region from 260 to 195 nm at 25° C. at a speed of 20 nm/min. Thermal denaturation scans were performed at 208 nm from 25 to 90° C. at a scan speed of 1° C./min. Raw data were processed using the denatured protein analysis routine implemented in the SepctraAnalysis software and converted to mean residue molar ellipticity using the following equation: [θ]=θ/(10×C×1×n), where θ is ellipticity, C is the molar concentration, 1 is the cell path length in centimeters, and n is the number of residues. Plots are the average of three replicate scans.
For B1, the “melting point (Tm)” value was 54.9 °C.
In the case of B2, the “melting point (Tm)” value is reported as 55.46 °C.
In the case of B3, the “melting point (Tm)” value is reported as 53.75 °C.
In the case of B4, the “melting point (Tm)” value is reported as 50.41 °C.
With B5 the “melting point (Tm)” value was 53.89 °C.

Same assay, conditions: CD spectropolarimetry, thermal denaturation at 208 nm, 2.5 μM protein; listed as PTP1B1-284
In the case of B1, the “melting point (Tm)” value is reported as 54.87 °C.

Same assay, conditions: difference to PTP1B1-284
In the case of B4, the “melting temperature lower than PTP1B1-284” value is reported as “about 4.5 °C”.

Same assay, conditions: difference to PTP1B1-301
In the case of B4, the “melting temperature lower than for PTP1B1-301” value is reported as “about 5 °C”.

System: PTP1B
Test: Phosphatase activity of PTP1B constructs against pNPP (enzyme assay)
Assay type: biochemical, human
Details: FIG. 24, 25, 32B
Procedure: Phosphatase activity of PTP1B against the general PTP/DUSP substrate, p-nitrophenyl phosphate (pNPP), was tested in 50 mM HEPES pH 7.5, 150 mM NaCl, 0.5 mM TCEP. 40 μl of enzyme at a 1.5 μM concentration was added to 60 μl of pNPP substrate resuspended in the reaction buffer. See, FIG. 25. The final concentrations of pNPP used in this experiment were […]. The enzyme was incubated with the substrate at 30° C. for 30 min, after which 100 μl of 1 M NaOH was added to a final concentration of 0.5 M NaOH to quench the reaction. Absorbance was measured at 405 nm and the final concentration of p-nitrophenol (pNP) was calculated using the molar extinction coefficient of 18000 M-1 cm-1. A control reaction in which substrate was incubated in the absence of enzyme was subtracted from all other experimental values. All experiments were performed in triplicate.
Enzyme assays were performed at pH 7.5 with 0.15 μM PTP1B to compare the activities of wild-type PTP1B1-301 to mutants with mutations in the L11 loop: PTP1BY152A/F, PTP1BY153A/F, and PTP1BYAYA. See, FIG. 17. […] Ibid. […] Ibid. […] Ibid. […] Ibid. […] Ibid. […] Ibid.
Enzyme assays were performed at pH 7.5 with 0.015 μM PTP1B to compare the activities of wild-type PTP1B1-301 to mutants with mutations in the α3 helix such as PTP1BN193A. See, FIG. 27. […] Ibid. […] Ibid. […] Ibid. […] Ibid. […] Ibid. […] Ibid.
An enzyme assay was used to compare the activity of wild-type PTP1B1-301 to the activity of PTP1B1-284 P185G. See, FIG. 15. Enzyme assays were performed at pH 7.5 with 0.015 μM PTP1B to compare the activities of wild-type PTP1B1-301 to mutants with mutations in the α7 helix. See, FIG. 32A. In one embodiment, these point mutations were made in an amino acid sequence substantially similar to SEQ ID NO: 2.
With B4 the “phosphatase activity compared with other constructs (in words)” value was “much lower”.

Same assay, conditions: FIG. 24, 25, 32B; listed as PTP1BΔ7
With B1 the “phosphatase activity compared with other constructs (in words)” value was “lack the activity exhibited by wild-type PTP1B1; also recorded: much lower”.

Same assay, conditions: pNPP substrate, pH 7.5, 0.015 μM PTP1B (FIG. 27, 32A, 32B)
Molecule B1 has a Km of 970 ± 100 µM and a kcat of 1.7 ± 0.07 s⁻¹.
B2 gave a Km of 460 ± 60 µM and a kcat of 6.2 ± 0.3 s⁻¹.
For B6, the Km was 320 ± 40 µM and the kcat was 4.2 ± 0.2 s⁻¹.
Work on B7 yielded a Km of 850 ± 70 µM and a kcat of 4.9 ± 0.2 s⁻¹.
Molecule B8 has a Km of 800 ± 70 µM and a kcat of 4.5 ± 0.1 s⁻¹.
B9 gave a Km of 580 ± 130 µM and a kcat of 2.6 ± 0.13 s⁻¹.
Work on B10 yielded a Km of 620 ± 70 µM and a kcat of 6.0 ± 0.2 s⁻¹.
Molecule B11 has a Km of 290 ± 30 µM and a kcat of 4.1 ± 0.1 s⁻¹.
Molecule B12 has a Km of 480 ± 100 µM and a kcat of 6.3 ± 0.4 s⁻¹.
With B13 the Km was 720 ± 120 µM and the kcat was 4.6 ± 0.3 s⁻¹.
Work on B14 yielded a Km of 370 ± 50 µM and a kcat of 6.1 ± 0.3 s⁻¹.
B15 gave a Km of 730 ± 50 µM and a kcat of 5.1 ± 0.1 s⁻¹.
B16 showed a Km of 390 ± 50 µM and a kcat of 5.3 ± 0.3 s⁻¹.
Molecule B17 has a Km of 990 ± 150 µM and a kcat of 4.5 ± 0.3 s⁻¹.
B18 showed a Km of 380 ± 50 µM and a kcat of 6.1 ± 0.3 s⁻¹.

Same assay, conditions: pNPP substrate, pH 7.5, 0.15 μM PTP1B (FIG. 17)
For B2, the Km was 460 ± 60 µM and the kcat was 6.2 ± 0.3 s⁻¹.
Work on B3 yielded a Km of 930 ± 180 µM and a kcat of 3.6 ± 0.29 s⁻¹.
Molecule B4 has a Km of 450 ± 40 µM and a kcat of 1.8 ± 0.05 s⁻¹.
B10 showed a Km of 900 ± 80 µM and a kcat of 3.4 ± 0.3 s⁻¹.
Molecule B19 has a Km of 950 ± 40 µM and a kcat of 3.4 ± 0.1 s⁻¹.
With B5 the Km was 960 ± 40 µM and the kcat was 3.0 ± 0.06 s⁻¹.
